Patent US20240279318A1 (NANJING LEGEND BIOTECH, published 2024)
Changes are numbered by the printed parent chain. One block for each binder: values may come before it.

Legend:
[1] = molecular target: T1, AFP158/HLA-A*02:01 complex (human); experiment: SPR, fold vs AS170036 VL1VH1;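 further: crude scFv muteins immobilised on a sensor chip, peptide–MHC complex passed over at several concentrations, binding then buffer-driven dissociation, KD estimated from on- and off-rates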
T1 construct: flowed as analyte in SPR
Procedure: (§1) The experiment was carried out as follows. The crude scFv protein were captured onto the sensorchip. Different concentrations (320, 160, 40 nM) of AFP158/HLA-A*02:01 complex flowed over the sensorchip surface, and were allowed to bind the antibody fragment for 100 s followed by injection of the running buffer to allow dissociation of the complex. On-rate (kd) and off-rate (kd) were calculated based on association and dissociation curve, and were used to estimate the equilibrium dissociation constant (KD).
(§2) The crude scFv muteins were then subjected to SPR affinity measurement by the method mentioned above.

[2] = molecular target: T1, AFP158/HLA-A*02:01 complex; experiment: SPR, crude scFv captured, pMHC analyte;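 further: pMHC analyte injected at three concentrations, association phase of one hundred seconds, then running buffer for dissociation, rates fitted from both curves, KD derived from the rates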
Procedure: as §1, §2

Affinity increase [1]: 9.3 fold
Kd [2]: 24 nM
koff [2]: 0.0087 s⁻¹
kon [2]: 360000 M⁻¹ s⁻¹
B1: AS170036 VL1VH1-57M98F (scFv)
scFv: QSALTQPRSVSGSPGQSVTISCAGTSSDVGSENYVSWYQQHPGKAPKLMIYQVNKRASGVPDRFSGSKSGNTASLTISGLQAEDEADYYCASYRSSDFNIVFGGGTKLTVLGGGGSGGGGSGGGGSEVQLVESGGGLVQPGGSLRLSCAASGFTFSSYAMSWVRQAPGKGLEWVSTINSGTGMPYYADSVKGRFTISRDNSKNTLYLQMNSLRAEDTAVYYCAKNFFDGSWFLGPPAMDYWGQGTLVTVSSHHHHHH
notes: also called 13-AS170036 VL1VH1-57M98F

Affinity increase [1]: 13.9 fold
Kd [2]: 16 nM
koff [2]: 0.0025 s⁻¹
kon [2]: 160000 M⁻¹ s⁻¹
B2: AS170036 VL1VH1-57K98Q (scFv)
scFv: B1 scFv with F98Q, M183K
notes: also called 12-AS170036 VL1VH1-57K98Q

Affinity increase [1]: 13.2 fold
Kd [2]: 17 nM
koff [2]: 0.0046 s⁻¹
kon [2]: 270000 M⁻¹ s⁻¹
B3: AS170036 VL1VH1-56N108D (scFv)
scFv: B1 scFv with F98H, G182N, M183S, G234D
notes: also called 20-AS170036 VL1VH1-56N108D

Affinity increase [1]: 8.6 fold
Kd [2]: 26 nM
koff [2]: 0.0086 s⁻¹
kon [2]: 330000 M⁻¹ s⁻¹
B4: AS170036 VL1VH1-98F108S (scFv)
scFv: B1 scFv with M183S, G234S
notes: also called 33-AS170036 VL1VH1-98F108S

Affinity increase [1]: 12.6 fold
Kd [2]: 18 nM
koff [2]: 0.0036 s⁻¹
kon [2]: 200000 M⁻¹ s⁻¹
B5: AS170036 VL1VH1-57H98I (scFv)
scFv: B1 scFv with F98I, M183H
notes: also called 08-AS170036 VL1VH1-57H98I

Affinity increase [1]: 6.8 fold
Kd [2]: 33 nM
koff [2]: 0.0067 s⁻¹
kon [2]: 200000 M⁻¹ s⁻¹
B6: AS170036 VL1VH1-57M108S (scFv)
scFv: B1 scFv with F98H, G234S
notes: also called 30-AS170036 VL1VH1-57M108S

Affinity increase [1]: 22.5 fold
Kd [2]: 10 nM
koff [2]: 0.0018 s⁻¹
kon [2]: 180000 M⁻¹ s⁻¹
B7: AS170036 VL1VH1-57K108A (scFv)
scFv: B1 scFv with F98H, M183K, G234A
notes: also called 25-AS170036 VL1VH1-57K108A

Affinity increase [1]: 33.5 fold
Kd [2]: 6.7 nM
koff [2]: 0.0014 s⁻¹
kon [2]: 210000 M⁻¹ s⁻¹
B8: AS170036 VL1VH1-56Y98I (scFv)
scFv: B1 scFv with F98I, G182Y, M183S
notes: also called 02-AS170036 VL1VH1-56Y98I

Affinity increase [1]: 37.3 fold
Kd [2]: 6 nM
koff [2]: 0.0012 s⁻¹
kon [2]: 200000 M⁻¹ s⁻¹
B9: AS170036 VL1VH1-56Y108D (scFv)
scFv: B1 scFv with F98H, G182Y, M183S, G234D
notes: also called 17-AS170036 VL1VH1-56Y108D

Affinity increase [1]: 9.7 fold
Kd [2]: 23 nM
koff [2]: 0.0058 s⁻¹
kon [2]: 250000 M⁻¹ s⁻¹
B10: AS170036 VL1VH1-56N98Q (scFv)
scFv: B1 scFv with F98Q, G182N, M183S
notes: also called 06-AS170036 VL1VH1-56N98Q

Affinity increase [1]: 9.1 fold
Kd [2]: 25 nM
koff [2]: 0.004 s⁻¹
kon [2]: 160000 M⁻¹ s⁻¹
B11: AS170036 VL1VH1-57K98I (scFv)
scFv: B1 scFv with F98I, M183K
notes: also called 11-AS170036 VL1VH1-57K98I

Affinity increase [1]: 15.8 fold
Kd [2]: 14 nM
koff [2]: 0.0053 s⁻¹
kon [2]: 370000 M⁻¹ s⁻¹
B12: AS170036 VL1VH1-98I108D (scFv)
scFv: B1 scFv with F98I, M183S, G234D
notes: also called 35-AS170036 VL1VH1-98I108D

Affinity increase [1]: 25.8 fold
Kd [2]: 8.7 nM
koff [2]: 0.0016 s⁻¹
kon [2]: 190000 M⁻¹ s⁻¹
B13: AS170036 VL1VH1-56Y98Q (scFv)
scFv: B1 scFv with F98Q, G182Y, M183S
notes: also called 03-AS170036 VL1VH1-56Y98Q

Affinity increase [1]: 8 fold
Kd [2]: 28 nM
koff [2]: 0.0067 s⁻¹
kon [2]: 240000 M⁻¹ s⁻¹
B14: AS170036 VL1VH1-57M98Q (scFv)
scFv: B1 scFv with F98Q
notes: also called 15-AS170036 VL1VH1-57M98Q

Affinity increase [1]: 16.3 fold
Kd [2]: 14 nM
koff [2]: 0.0045 s⁻¹
kon [2]: 330000 M⁻¹ s⁻¹
B15: AS170036 VL1VH1-98Q108D (scFv)
scFv: B1 scFv with F98Q, M183S, G234D
notes: also called 38-AS170036 VL1VH1-98Q108D

Affinity increase [1]: 17.6 fold
Kd [2]: 13 nM
koff [2]: 0.0057 s⁻¹
kon [2]: 450000 M⁻¹ s⁻¹
B16: AS170036 VL1VH1-98F108D (scFv)
scFv: B1 scFv with M183S, G234D
notes: also called 32-AS170036 VL1VH1-98F108D

Affinity increase [1]: 30.2 fold
Kd [2]: 7.4 nM
koff [2]: 0.0018 s⁻¹
kon [2]: 240000 M⁻¹ s⁻¹
B17: AS170036 VL1VH1-57H98F (scFv)
scFv: B1 scFv with M183H
notes: also called 07-AS170036 VL1VH1-57H98F

Affinity increase [1]: 8.5 fold
Kd [2]: 27 nM
koff [2]: 0.0057 s⁻¹
kon [2]: 220000 M⁻¹ s⁻¹
B18: AS170036 VL1VH1-98Q108S (scFv)
scFv: B1 scFv with F98Q, M183S, G234S
notes: also called 39-AS170036 VL1VH1-98Q108S

Affinity increase [1]: 11.8 fold
Kd [2]: 19 nM
koff [2]: 0.0055 s⁻¹
kon [2]: 290000 M⁻¹ s⁻¹
B19: AS170036 VL1VH1-57M108D (scFv)
scFv: B1 scFv with F98H, G234D
notes: also called 29-AS170036 VL1VH1-57M108D

Affinity increase [1]: 7 fold
Kd [2]: 32 nM
koff [2]: 0.0067 s⁻¹
kon [2]: 210000 M⁻¹ s⁻¹
B20: AS170036 VL1VH1-56N108S (scFv)
scFv: B1 scFv with F98H, G182N, M183S, G234S
notes: also called 21-AS170036 VL1VH1-56N108S
